test: soluble on expression in E. coli; label from the status in PepcDB or PDB records

Sequence	soluble on expression in E. coli
MTTFNYTNILTQAVDELSESQSYKGLFHQHKDGDPLPSAKSLYKIVELARAIIFPGYFGNSTVNSHTINYHIGVNVETLFGLLTEQILAGLCFGQENSKNATDDNEPCRETASLLAARFISKLPELRRILATDVEAAYYGDPAATCFGEIISCYPAIRAISNYRIAHELLILGVPLIPRFITEMAHSETGIDIHPGAQIGHHFTIDHGTGVVIGATSIIGNNVKLYQGVTLGAKSFPLDNNGNPIKGIPRHPILEDDVIVYSNATILGRVTIGKGATVGGNIWVTENVPAGSRIVQRKNKDELEHHHHHH	soluble
MKRMLASLLGTAIALGSGLALAAEADLQALEQAARKEGQVNSVGMPDSWANWKDTWKDLESKYGLKHMDTDMSSAQELAKFKAEKDNASADIGDVGAAFGPIAVQQGVSQPYKPSTWEQIPAWAKDQDGHWALAYTGTIAFIVNKQLVKDVPHSWADLLQGKYKVTIGDVSAAAQAVNGVLAAAIANGGDEKNIKPGLEFFGKIAKQGRLSLTNPVIATLEKGEVEVGIVWDFNGLSYRQQIDPERFEVLIPSDGSVISGYTTIINKYAKHPNAAKLAREYIFSDAGQINLAKGNARPIRAESLTLPDDVKAQLLPNEQYAKAQPIKDAKAWEETSKRLPRQWQEAVIINMQ	not soluble
MISIVGIGSGNRVEELTIKAYNTLKNSDIGIYPGNFIGEELKELFEDKTMFTGRDITSEKIKNIFHNNRDKNICLMVSGDPALYSGQFNTNLCLDEHIKWFNEHNYNYEMIPGLSSLSILCAKKSIDLTPFSKTQNVFITSIERLRDLKCFNYTELKSILSTKPVLALYQSLKEFDNIKSLLMEFYPPTTKVIFAQSLSWSNECIFETDLKTLNETESTTSQFNDQTLILVYPSTILTIK	not soluble
MGSDKIHHHHHHMMDARRNGLVLLALLLLTQTTISAQTDSMGKDVPIDSVSVATSDSLQTKRGFFKKFLDYFNDANKEKKNKKFDFSVIGGPHYSSDTKFGLGLVAAGLYRTDRNDSILPPSNVSLYGDVSTVGFYLLGVRGNHLFPQEKYRLNYNLYFYSFPSLYWGRGYDNGANSDNESDYKRFQAQVKVDFMFRVAKSFYIGPMAVFDYIDGRDFEKPELWEGMSARTTNTSLGLSLLYDSRDFLTNAYQGYYLRIDQRFSPAFLGNKYAFSSTELTTSYYHPVWKGGVLAGQFHTLLNYGNPPWGLMATLGSSYSMRGYYEGRYRDKCAMDAQIELRQHIWKRNGVAVWAGAGTVFPRFSDFTPKHILPNYGFGYRWEFKKRVNVRLDLGFGKHQTGFIFNINEAF	not soluble
MTDYPSIFEPLTVKRMTIKNRVIMPPMGTNLAGLNGEFLEEHMNYYEQRAKGGTGLITIENACVDFPYGTNGTTQLRIDNDQYIPGFYKLTERLHKHGTCVSIQINHAGASAYPARLNGLQPVSASDIPSKKGGTVPRPLTVEEIYEIVNKYGDAARRAQQAGFDAVEIHGGHSYLLCQFLSPLYNKRTDEFGGTPENRARIVKLILEKVRAEVGPFFPIVLRFSADEFTEGGNHLEDILELLDYCQEEADILNVSAAINDNLYLQIDQMNLEDGWRSYLAKAVKDKFNKPTITSGNIRSPKAAEKILSEGYADLLAMGRGLIAEPNWVNKVATGQEDMLRKCISCNIGCADHRISKSKPIRCTVNPDIIHEDKYKETKVTRPTNVVVIGGGTAGLEAACTAAEVGCNTTLIEANEQTGGLARAIANLPDKSRIADFPNYLANRAEKLTNLKVITGTKADTALIDTFNPDVVVNATGSKPLLPPIKGLLDVIDKEGSKVHSIFGLISNIDDFTEFSNKKVAVIGGGAVGLDVVEYFSERGSDVTIVEMMPLLGKDLDMITRLSMMDIIEKNHVDVQTETALTEVAADHFKVKHDGVDAEIPFDYGFVCLGMRPERPLMEELAAYGKEKQIEIVNIGDSAATRKILEGVREGRNILTTLEKIGSL	not soluble
MSQSNLIQTDRFVLSETERSSIEHEMHHYEDPRAASIEALKIVQKQRGWVPDGAIPAIGEVLGIPASDVEGVATFYSQIFRQPVGRHIIRVCDSMVCYIGGHESVVGEIQKQLGIGLGQTTADGRFTLLPVCCLGNCDKAPALMIDDDTHGDVRPDGVAKLLEAYV	not soluble
MSLKITKLEKKKRLYLMELDNGDKCYITEDTIVRFMLSRDKVISEEELKEIQDFAQFSYGKNLALYHLSFKARTEKEVREYLKKYDIDKNIVSQVIANLKEDKWINDGQYAYAIINTNQLSGDKGPYVLTQKLAQKGISKSTIEENLKEFDFSEVAQRVANKLLKKYEGKLPARALQDKIIQNLTNKGFSYSDAKIAFDDLDSQVDQETTQELIFKELDKQYTKYARKYEGYELKQRLTQVLARKGYDFSDIASALREYLEGHHHHHH	soluble
MTSLQLSIVHRLPQNYRWSAGFAGSKVEPIPQNGPCGDNSLVALKLLSPDGDNAWSVMYKLSQALSDIEVPCSVLECEGEPCLFVNRQDEFAATCRLKNFGVAIAEPFSNYNPFLEHHHHHH	not soluble
MSSNLTSNEMSSTSAIVEPPEAVKGNERDKSTRRSTSQVVRPEKHEVENALEDQCSSSSLPKEAQYYAKLDKKLEGKDPRSQFYEAVRLSADIFAHKFEKAVCSRQTFEPTNSIIKVLNTAEEEMLHEKVVPLPVSSKLQYYLNRGRYDTIFDRDEQLQRTADPMADEPDHVEKRVTSILEQASREMEEGEVEPVFYDGSDEDQELPIDLGAMRNLQRTNKFAARSSRMAARRGGRPGYRGAFRGAARGAPSRRPAPAAEVAPETPVAAPMAPAAPAAPATPEAAPAAEVMDTSIATEMPQESAVDLSNVSAATEMDTSKEGEASRPTSEKKKKIRTTEMDRLMSMDLGPKDGGRVGELGHMWPESRRRPAAPLPETPAAQPRKSLPRRAAEKKKPEDSDAAEEQEVEMEVDNDASTSTPRNARGGRGGGNRRGSRRGQKRTSGGSGKLVEPKKEPVDEPAEKIPKRSEAAPEVPATATTKEAPPSTSSSPPDAPATPATPASSDSRDSPRKIRAMIFSLTGSPPESETPPVLQQEQVISTAAPTAGRHPNIIQQVPHINRIPPQPLRRLTAPQAPPASQPEEPPVQQTVPVVKVELASAPAPIVRDPQSTEPVPPAMPTLVENNHEATLILPPNKTSDYTRWNAQDLINWVRLLITNNVDSTIAIMVREEFDGETLACLVLDDDFRKEVPIPYGHYKKMKIYGTEVLNHYRTEKYQADLRKFHEELAAWKAQQR	not soluble
MDIKVIREKLTLTTSITSESVAEYEHDVDECCRLLEHKLELEMEKKLQLSNRIDVVQSQVTELWDRVDKARRRESDISCRVTAWAQHLSEMMNEVKLKKAKMGTTMEISATLSAEIQESLDLLAEKRVIVQRMREEIDYRRHLHKQQLKDLKLDCDREEEKCEYWNDKSAEIEKVVEMLKEQRKSLGERVEEEKRMEQEQKKMLEELEMLLKKTGKKRQILDENANLVASFSSLTEESS	not soluble
MQERDKEPLQERFFRPHFLQAPGDMVAHEGRLCRLDCKVSGLPPPELTWLLNGQPVLPDASHKMLVRGTGVHSLLIDPLTQRDAGTYTCVATNKTGQNSFSLELTVVAKEVKKAPVILEKLQNSGVPEGHPVRLEGRVIGMPPPVFYWKKDNETIPFTRERISMHQDTTGYVCLLIQPAKKSDAGWYTLSAKNEAGIVSCTARLDIYAQWHQQIPTPISIRPSGSRYGSLTSKGLDIFSAFSSVESTMLYSCTSRSVVESDEL	not soluble
MITVFHSDKLTRQPFFQDLINYLDQHDHVILREIKKAFPNVTGIDKAIESYVQAGYIRRENKRYGINLPLVSSDQQLALDTMLFVDTCSAMYENILAVVFETQLTNQTNRVMIKEKTNITRDDLTLANYFYRLKRGEKPSAEQMDLYDLLGDVNQEYALKYMTTFLLKFTRKDFVMQKRPDIFVEALVTLGYLKQVEPTTYQLLMTLDKESLTFIAP	not soluble
MEPPLILIVEDEKDIARFIELELQAEGYRTEVAHDGITGLSKFREVSPNLVILDLMLPVMDGIEVAKRIRKTSNVPILILTAKDRVEDKVAGLDAGADDYLVKPFSIEELLARVRAHLRRVTPAITGEIRVADLIINLEGREVFRGNRRIELSNKEFELLELLAKNPGKVFSRYEIEEKVWPGYQGGSNVVDVYIGYLRKKLEAGGERRLIHTVRGVGYVLRED	soluble
GRRIQGQRRGRGTSTFRAPSHRYKADLEHRKVEDGDVIAGTVVDIEHDPARSAPVAAVEFEDGDRRLILAPEGVGVGDELQVGVDAEIAPGNTLPLAEIPEGVPVCNVESSPGDGGKFARASGVNAQLLTHDRNVAVVKLPSGEMKRLDPQCRATIGVVGGGGRTDKPFVKAGNKHHKMKARGTKWPNVRGVAMNAVDHPFGGGGRQHPGKPKSISRNAPPGRKVGDIASKRTGRGGNE	soluble
MTVEQNEFLSSVQLQILAEQAIKQYPNEYQGSVKLLCQSENATFLVTTAQAKYALRIHRPNYHHLQDIESELAWLDALNQSGIEVPLAIADQDGQRVITLKLAEGISRYAVLFNWVNGSMPTTDVDPTAFQQLGQITAALHQHSKSWKRPEQFNRIVWNHDTMVGAQGHWGNWKHAPHLDQADHAVVEEAIARISTELCQYGAGEDRYGLIHADLRLTNLLLQDQQIGVIDFDDCGMSWFMHDLAAAISFNEHLDAAPQWVEHWLTGYEKTGHVQNHDYVMIPTFIMQRRIQMMAWNGSHAHTEMALSLGDQWSNETVRLCKKYLNGEMPVGRSNA	not soluble
MDFMISHFCDEQNHQPLYKTRRQSISDSKNGPTLLSSSLPTNDECSDSDTENRLPPETELGNIEYKAKLVNPTTSRIQHLITQMKWRLREGQGEAIYEIGVEDGGIMSGLTDEELNDSLRTLRTMAQALGASMVILTEKDVTVKGSNSRRTVVEVLVRKVPESQQFIEVRLAVVGGCDVGKSTLCGVLTQGCLDDGNGKARIGIFRFPHEVRTGKTSSVCNDVIGFDNRGKLVNYAQNSLEEMVEKSSKLVTLIDLAGDAKYQKTTIHGLTGYTPHFACLVVAADRGITWATREHLGLIAALNIPMFVLITKMDLVDRQGLKKIIKDVSNLVAKAGMTAREKRVKTKRDAVKAAQELCVGSIVPVLAVSSVSGEGFRCLRTLLNCLSTAGTAESRIQLVGLPAFFTIEELYNVPHVGQVVGGMLSEGQLHEGADVLVGPMKDGTFEKITVGSIRRSRQAVGCVNPGEAASISLNLPDGVSLRRGMVLAEIDHQPPVCYEFTANLLLLCHSTKYICEGFQATVFIGSVCTTAIITHIDDADCIRPGKWAVVKMCFAYQPEVIREGSPIILRQGKTKGMGEVLKVFPCTQ	not soluble
MPMVRVATNLPDKDVPANFEERLTDLLAESMNKPRNRIAIEVLAGQRITHGASRNPVAVIKVESIGALSADDNIRHTQKITQFCQDTLKLPKDKVIITYFDLQPIHVGFNGTTVAAATM	soluble
MREKELKHIENLLLLKVKKEKIEETDKIKEYLKRFEDERRFDGIKESTIKSDLDRLRVFLDYCINYLGKNPEELKTSDFVKFFNYLDTVRKVSKSSQRKYFLLLKVFYRVLRMYNVIQEFVEESKDRKRFARIEIQHYDAVDAEMLNMILKKIIESGSRTRIRDALIIRLLWDTGCRVSEVLNLKYKDCDLDNGIFKIRNTKTHEERTVVCSSDTLELLRNYVQFNVRQGSDDYLFQNSQGGRVRKEWISEVFRKAVNELKEEGKIPKNRRIVIHSIRHGRAVDLLNKGVPIDIVKEYLGHKSMNTTLIYAHSKERAESLEFIKKLLRIQ	not soluble
GSKNCPDPELCRQSFRRFCYQEVSGPQEALSQLRQLCRQWLQPELHTKEQILELLVMEQFLTILPEEIQARVRHRCLMSSKEIVTLVEDFHRASKKPK	soluble
MKQIAFIGLGHMGAPMATNLLKAGYLLNVFDLVQSAVDGLVAAGASAARSARDAVQGADVVISMLPASQHVEGLYLDDDGLLAHIAPGTLVLECSTIAPTSARKIHAAARERGLAMLDAPVSGGTAGAAAGTLTFMVGGDAEALEKARPLFEAMGRNIFHAGPDGAGQVAKVCNNQLLAVLMIGTAEAMALGVANGLEAKVLAEIMRRSSGGNWALEVYNPWPGVMENAPASRDYSGGFMAQLMAKDLGLAQEAAQASASSTPMGSLALSLYRLLLKQGYAERDFSVVQKLFDPTQGQ	soluble

Reference: the DeepSol protein solubility set
